Key:
[1] = target: T1, full length recombinant human 2N4R tau (human, UniProt P10636 1-758); test: SPR SCK, IgG on Protein A, tau in flow
T1 construct: bought from rPeptide; pHrodo Red maleimide-labelled where it stands in uptake assays; also called tau1-441; full length tau

Bovine serum albumin = target: T2, Bovine serum albumin (bovine, UniProt P02769 25-607); test: ELISA on 1% BSA, HEK supernatant, anti-human IgG-HRP, n=1
T2 construct: also called BSA
T2 sequence (P02769 25-607 limits assumed): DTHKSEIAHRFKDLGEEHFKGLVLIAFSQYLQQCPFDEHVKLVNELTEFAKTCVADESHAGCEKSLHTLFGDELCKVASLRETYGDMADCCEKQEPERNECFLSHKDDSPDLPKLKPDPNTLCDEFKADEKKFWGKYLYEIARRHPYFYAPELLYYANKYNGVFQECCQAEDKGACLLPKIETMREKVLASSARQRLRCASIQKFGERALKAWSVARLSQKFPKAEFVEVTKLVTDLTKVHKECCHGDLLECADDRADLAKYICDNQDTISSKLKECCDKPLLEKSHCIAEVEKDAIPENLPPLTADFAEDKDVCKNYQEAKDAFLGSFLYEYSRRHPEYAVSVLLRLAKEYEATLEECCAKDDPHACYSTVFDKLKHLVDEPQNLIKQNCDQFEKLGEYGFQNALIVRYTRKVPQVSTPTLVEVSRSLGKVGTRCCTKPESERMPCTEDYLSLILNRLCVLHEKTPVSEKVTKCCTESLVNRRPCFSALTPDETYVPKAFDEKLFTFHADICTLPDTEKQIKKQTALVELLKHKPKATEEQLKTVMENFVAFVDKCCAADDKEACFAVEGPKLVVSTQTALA

T1 sequence (P10636 other isoform, or with tags, fused parts or gaps limits assumed): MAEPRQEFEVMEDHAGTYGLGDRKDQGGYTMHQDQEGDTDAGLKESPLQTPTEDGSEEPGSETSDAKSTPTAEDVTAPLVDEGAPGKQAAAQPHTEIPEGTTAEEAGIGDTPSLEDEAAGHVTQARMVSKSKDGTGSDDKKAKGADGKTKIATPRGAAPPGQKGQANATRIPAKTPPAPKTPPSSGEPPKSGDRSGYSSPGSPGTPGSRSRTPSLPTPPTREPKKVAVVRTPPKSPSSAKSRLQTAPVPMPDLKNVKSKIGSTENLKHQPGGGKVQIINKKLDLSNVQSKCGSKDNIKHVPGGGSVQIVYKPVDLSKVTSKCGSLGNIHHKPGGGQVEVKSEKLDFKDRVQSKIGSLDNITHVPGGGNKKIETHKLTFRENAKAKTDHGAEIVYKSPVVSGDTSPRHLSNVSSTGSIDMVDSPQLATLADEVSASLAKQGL

Binder	Fold change (KD, to pVH/pVL) [1]	Kd [1] [nM]	koff [1] [s⁻¹]	kon [1] [M⁻¹ s⁻¹]	binding result (Bovine serum albumin)
#44_VH4VK4_H17/pVL (antibody, V domains shown, also called Clone VH4_H17; #44_VH4_H17) VH: QVQLQESGPGLVKPSETLSLTCTVSGIDLSSYAMAWVRQAPGKGLEWIGAIDRVGNTFYASWVKGRFTISKDTSKTTVDLQMTSLTAEDTATYFCARDSGAFDPWGQGTLVTVSS VL: DIQMTQSPSSLSASVGDRVTITCQASQSVYDNYLAWYQQKPGQPPKLLIHAASNLASGVPSRFSGSGSGTEFTLTISSLQPDDFATYYCLGEFSCTTTDCNVFGGGTKVEIK	1.03	6.36	0.306	4.81e+07	no binding (tested: 30 ng/ml (legend 1:100))
#44_VH4VK4_H20/pVL (antibody, V domains shown, also called Clone VH4_H20; #44_VH4_H20) VH: QVQLQESGPGLVKPSETLSLTCTVSGIDLSSYAMAWVRQAPGKGLEWIGAIDSRGSTFYASWVKGRFTISKDTSKTTVDLQMTSLTAEDTATYFCARDSGAFDPWGQGTLVTVSS VL: DIQMTQSPSSLSASVGDRVTITCQASQSVYDNYLAWYQQKPGQPPKLLIHAASNLASGVPSRFSGSGSGTEFTLTISSLQPDDFATYYCLGEFSCTTTDCNVFGGGTKVEIK	0.75	8.78	0.0404	4.6e+06	no binding (tested: 30 ng/ml (legend 1:100))
#44_VH4VK4_H18/pVL (antibody, V domains shown, also called Clone VH4_H18; #44_VH4_H18) VH: QVQLQESGPGLVKPSETLSLTCTVSGIDLSSYAMAWVRQAPGKGLEWIGAIDAGGNTFYASWVKGRFTISKDTSKTTVDLQMTSLTAEDTATYFCARDSGAFDPWGQGTLVTVSS VL: DIQMTQSPSSLSASVGDRVTITCQASQSVYDNYLAWYQQKPGQPPKLLIHAASNLASGVPSRFSGSGSGTEFTLTISSLQPDDFATYYCLGEFSCTTTDCNVFGGGTKVEIK	0.19	34.2	0.00983	287000	no binding (tested: 30 ng/ml (legend 1:100))
#44_VH4VK4_H19/pVL (antibody, V domains shown, also called Clone VH4_H19; #44_VH4_H19) VH: QVQLQESGPGLVKPSETLSLTCTVSGIDLSSYAMAWVRQAPGKGLEWIGAIDSRGATFYASWVKGRFTISKDTSKTTVDLQMTSLTAEDTATYFCARDSGAFDPWGQGTLVTVSS VL: DIQMTQSPSSLSASVGDRVTITCQASQSVYDNYLAWYQQKPGQPPKLLIHAASNLASGVPSRFSGSGSGTEFTLTISSLQPDDFATYYCLGEFSCTTTDCNVFGGGTKVEIK	0.68	9.72	0.0122	1.26e+06	no binding (tested: 30 ng/ml (legend 1:100))
#44_VH4VK4 pVH/L2 (antibody, V domains shown, also called Clone VK4_L2; #44_VK4_L2) VH: QVQLQESGPGLVKPSETLSLTCTVSGIDLSSYAMAWVRQAPGKGLEWIGCIDRRGGTFYASWVKGRFTISKDTSKTTVDLQMTSLTAEDTATYFCARDSGAFDPWGQGTLVTVSS VL: DIQMTQSPSSLSASVGDRVTITCQASQSVYDNYLAWYQQKPGQPPKLLIHAASNLASGVPSRFSGSGSGTEFTLTISSLQPDDFATYYCLGEFSCQDTDCNVFGGGTKVEIKR	0.89	7.38	–	–	no binding (tested: 30 ng/ml (legend 1:100))

Source: patent US20250270301A1 (GEN2 NEUROSCIENCE, published 2025)
